How the values were obtained:
human CCR8 [1] = biological target: T1, human CCR8 (human, UniProt P51685 1-355); experiment: flow, PBMC CCR8+CD3+; PE-L263G8 staining after isotype block
T1 construct: Native CCR8 on human PBMC (CCR8+ CD3+ or CCR8+ CD4+ lymphocytes); also called chemokine (C-C motif) receptor 8

human CCR8 [2] = biological target: T1, human CCR8; experiment: flow blocking, PBMC CCR8+CD3+; competitor PE-AB6
Outline: (§1)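 Competition by flow cytometry: 10 μg unlabeled antibody preblock, then 0.25 μg PE-competitor with T-cell marker for 15 min. MFI gated on CCR8+ CD4+ or CD3+ cells; 100 − percent of isotype MFI.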

human CCR8 [3] = biological target: T1, human CCR8; experiment: flow blocking, PBMC CCR8+CD3+; competitor PE-AB7
Outline: as §1

human CCR8 [4] = biological target: T1, human CCR8; experiment: flow blocking, PBMC CCR8+CD3+; competitor PE-AB12
Outline: as §1

human CCR8 [5] = biological target: T1, human CCR8; experiment: flow blocking, PBMC CCR8+CD3+; competitor PE-AB5
Outline: as §1

human CCR8 [6] = biological target: T1, human CCR8; experiment: flow blocking, PBMC CCR8+CD4+; competitor PE-AB6
human CCR8 [7] = biological target: T1, human CCR8; experiment: flow blocking, PBMC CCR8+CD4+; competitor PE-AB2
Outline: (§2)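 Cells were preincubated with 10 μg purified unlabeled antibody or isotype control, then stained 15 min in the dark with 0.25 μg PE-conjugated competitor plus anti-CD4 or anti-CD3. MFI on CCR8+ CD4+ (or CD3+) lymphocytes by flow; blocking % = 100 − (MFI blocked / MFI isotype-blocked × 100).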

human CCR8 [8] = biological target: T1, human CCR8; experiment: flow blocking, PBMC CCR8+CD4+; competitor PE-AB3
Outline: as §2

human CCR8 [9] = biological target: T1, human CCR8; experiment: flow blocking, PBMC CCR8+CD4+; competitor PE-AB10
Outline: as §2

human CCR8 [10] = biological target: T1, human CCR8; experiment: flow blocking, PBMC CCR8+CD4+; competitor PE-AB12
Outline: as §2

[11] = biological target: human chemokine (C-C motif) receptor 8 (CCR8) (human) (UniProt P51685); experiment: flow cytometry blocking, PBMC CCR8+ CD4+ cells; competitor PE-AB6 (its MFI is read)
human CCR8 [12] = biological target: T1, human CCR8; experiment: flow blocking, PBMC CCR8+CD3+; competitor PE-AB13
Outline: as §1

human CCR8 [13] = biological target: T1, human CCR8; experiment: flow blocking, PBMC CCR8+CD4+; competitor PE-AB15
Outline: as §2

human CCR8 [14] = biological target: T1, human CCR8; experiment: flow blocking, PBMC CCR8+CD3+; competitor PE-AB14
Outline: as §1

human CCR8 [15] = biological target: T1, human CCR8; experiment: flow blocking, PBMC CCR8+CD4+; competitor PE-AB13
Outline: (§3)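 Human PBMC (100 μL suspension) were pre-blocked with 10 μg of each unlabelled anti-CCR8 antibody or isotype control. Cells were then stained 15 min in the dark with 0.25 μg of the PE-conjugated competitor antibody plus anti-CD4 or anti-CD3. Read-out by flow cytometry as MFI on CCR8+CD4+ or CCR8+CD3+ lymphocytes.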

human CCR8 [16] = biological target: T1, human CCR8; experiment: flow blocking, PBMC CCR8+CD4+; competitor PE-AB11
Outline: as §2

human CCR8 [17] = biological target: T1, human CCR8; experiment: flow blocking, PBMC CCR8+CD3+; competitor PE-AB15
Outline: as §1

human CCR8 [18] = biological target: T1, human CCR8; experiment: flow blocking, PBMC CCR8+CD3+; competitor PE-AB11
Outline: as §1

human CCR8 [19] = biological target: T1, human CCR8; experiment: flow blocking, PBMC CCR8+CD3+; competitor PE-433H
Outline: as §1

human CCR8 [20] = biological target: T1, human CCR8; experiment: flow blocking, PBMC CCR8+CD3+; competitor PE-AB8
Outline: as §1

human CCR8 [21] = biological target: T1, human CCR8; experiment: flow blocking, PBMC CCR8+CD4+; competitor PE-433H
Outline: as §3

human CCR8 [22] = biological target: T1, human CCR8; experiment: flow blocking, PBMC CCR8+CD4+; competitor PE-AB4
Outline: as §2

human CCR8 [23] = biological target: T1, human CCR8; experiment: flow blocking, PBMC CCR8+CD4+; competitor PE-AB14
Outline: as §3

human CCR8 [24] = biological target: T1, human CCR8; experiment: flow blocking, PBMC CCR8+CD3+; competitor PE-L263G8
Outline: as §1

human CCR8 [25] = biological target: T1, human CCR8; experiment: flow blocking, PBMC CCR8+CD4+; competitor PE-AB5
Outline: as §2

human CCR8 [26] = biological target: T1, human CCR8; experiment: flow blocking, PBMC CCR8+CD4+; competitor PE-AB1
Outline: as §2

human CCR8 [27] = biological target: T1, human CCR8; experiment: flow blocking, PBMC CCR8+CD3+; competitor PE-AB10
Outline: as §1

human CCR8 [28] = biological target: T1, human CCR8; experiment: flow, PBMC CCR8+CD3+; PE-433H staining after isotype block
human CCR8 [29] = biological target: T1, human CCR8; experiment: flow, PBMC CCR8+CD4+; PE-433H staining after isotype block

T1 sequence (P51685 whole entry): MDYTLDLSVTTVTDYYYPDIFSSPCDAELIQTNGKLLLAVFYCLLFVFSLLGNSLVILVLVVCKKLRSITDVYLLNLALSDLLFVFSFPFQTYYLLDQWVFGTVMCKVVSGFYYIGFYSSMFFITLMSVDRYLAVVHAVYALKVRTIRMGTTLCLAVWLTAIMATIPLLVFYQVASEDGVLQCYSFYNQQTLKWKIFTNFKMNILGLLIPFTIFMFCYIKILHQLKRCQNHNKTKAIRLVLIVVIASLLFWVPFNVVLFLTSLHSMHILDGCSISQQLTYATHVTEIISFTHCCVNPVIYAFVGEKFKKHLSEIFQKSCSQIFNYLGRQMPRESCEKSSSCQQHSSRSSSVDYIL
Chain of human chemokine (C-C motif) receptor 8 (CCR8) (human) (P51685 whole entry): as above

Molecule: Commercial L263G8 (antibody)
- MFI (human CCR8 [1]): 674

Molecule: isotype control (antibody)
- % Blocking (human CCR8 [2]): 0%
- % Blocking (human CCR8 [3]): 0%
- % Blocking (human CCR8 [4]): 0%
- % Blocking (human CCR8 [5]): 0%
- % Blocking (human CCR8 [6]): 0%
- % Blocking (human CCR8 [7]): 0%
- % Blocking (human CCR8 [8]): 0%
- % Blocking (human CCR8 [9]): 0%
- % Blocking (human CCR8 [10]): 0%
- % Blocking [11]: 0%
- % Blocking (human CCR8 [12]): 0%
- % Blocking (human CCR8 [13]): 0%
- % Blocking (human CCR8 [14]): 0%
- % Blocking (human CCR8 [15]): 0%
- % Blocking (human CCR8 [16]): 0%
- % Blocking (human CCR8 [17]): 0%
- % Blocking (human CCR8 [18]): 0%
- % Blocking (human CCR8 [19]): 0%
- % Blocking (human CCR8 [20]): 0%
- % Blocking (human CCR8 [21]): 0%
- % Blocking (human CCR8 [22]): 0%
- % Blocking (human CCR8 [23]): 0%
- % Blocking (human CCR8 [24]): 0%
- % Blocking (human CCR8 [25]): 0%
- % Blocking (human CCR8 [26]): 0%
- % Blocking (human CCR8 [27]): 0%

B1: Commercial 433H (antibody, from another filing, V domains shown)
VH: EVQLVETGGGLVQPKGSLRLSCAASGFPFNTFAMNWVRQAPGKGLEWLARIRSKSNNYATYYADSVKDRFTISRDDSRRMLYLLMNNVKFEDTAIYYCVRGKENNYGYAMDYWGQGTSVTVSS
VL: DIVMTQAAPSVPVTPGESVSISCRSSQSLLHSNGNTYLYWFLQRPGQSPQLLIYRMSNLASGVPDRFSGSGSGTAFTLRISRVEAEDVGVYYCMQHLEYPFTFGIGTKLELKR
- MFI (human CCR8 [28]): 886
- % Positive cells (human CCR8 [29]): 1.76%

From US20240360228A1 (BIOLEGEND, published 2024)
